Laboratory results from patent publication US20210130453A1 (AstraZeneca / MedImmune, published 2021).

B1: human LIF (source not stated) (ligand)
chain: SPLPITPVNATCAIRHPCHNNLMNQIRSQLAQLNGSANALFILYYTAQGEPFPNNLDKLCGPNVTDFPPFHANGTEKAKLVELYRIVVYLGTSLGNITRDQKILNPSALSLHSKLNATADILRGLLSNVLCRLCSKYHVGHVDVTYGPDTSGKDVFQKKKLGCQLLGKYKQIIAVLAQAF
notes: also called hLIF; endogenous LIF of U-251 cells

How the values were obtained:
[1] = target: T1, recombinant human gp130 (human, UniProt P40189 23-619, limits assumed); test: ELISA: LIF pre-incubated with B09, added to a plate coated with gp130, detected through the antibody with peroxidase anti-rat IgG
T1 sequence (looked up): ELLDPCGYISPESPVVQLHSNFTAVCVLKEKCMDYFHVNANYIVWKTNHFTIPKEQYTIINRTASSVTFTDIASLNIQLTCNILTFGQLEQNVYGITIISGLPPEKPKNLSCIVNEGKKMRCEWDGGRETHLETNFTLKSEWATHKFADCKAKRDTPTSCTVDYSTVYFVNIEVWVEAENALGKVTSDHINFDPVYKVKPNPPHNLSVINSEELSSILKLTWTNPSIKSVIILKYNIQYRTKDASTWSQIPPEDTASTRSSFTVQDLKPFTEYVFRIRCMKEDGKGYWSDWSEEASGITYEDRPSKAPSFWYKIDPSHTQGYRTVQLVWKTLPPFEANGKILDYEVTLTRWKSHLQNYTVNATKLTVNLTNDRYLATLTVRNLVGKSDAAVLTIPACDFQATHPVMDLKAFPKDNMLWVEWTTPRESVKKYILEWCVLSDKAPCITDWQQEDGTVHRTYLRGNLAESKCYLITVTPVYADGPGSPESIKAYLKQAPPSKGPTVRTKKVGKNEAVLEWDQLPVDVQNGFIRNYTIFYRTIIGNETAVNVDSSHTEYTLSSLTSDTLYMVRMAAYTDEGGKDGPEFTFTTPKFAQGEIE

[2] = target: T2, recombinant human LIFR (human, UniProt P42702 45-833, limits assumed); test: BLI (Octet RED96) control experiment, h5D8 on AHC sensors
T2 construct: also called hLIFR
T2 sequence (looked up): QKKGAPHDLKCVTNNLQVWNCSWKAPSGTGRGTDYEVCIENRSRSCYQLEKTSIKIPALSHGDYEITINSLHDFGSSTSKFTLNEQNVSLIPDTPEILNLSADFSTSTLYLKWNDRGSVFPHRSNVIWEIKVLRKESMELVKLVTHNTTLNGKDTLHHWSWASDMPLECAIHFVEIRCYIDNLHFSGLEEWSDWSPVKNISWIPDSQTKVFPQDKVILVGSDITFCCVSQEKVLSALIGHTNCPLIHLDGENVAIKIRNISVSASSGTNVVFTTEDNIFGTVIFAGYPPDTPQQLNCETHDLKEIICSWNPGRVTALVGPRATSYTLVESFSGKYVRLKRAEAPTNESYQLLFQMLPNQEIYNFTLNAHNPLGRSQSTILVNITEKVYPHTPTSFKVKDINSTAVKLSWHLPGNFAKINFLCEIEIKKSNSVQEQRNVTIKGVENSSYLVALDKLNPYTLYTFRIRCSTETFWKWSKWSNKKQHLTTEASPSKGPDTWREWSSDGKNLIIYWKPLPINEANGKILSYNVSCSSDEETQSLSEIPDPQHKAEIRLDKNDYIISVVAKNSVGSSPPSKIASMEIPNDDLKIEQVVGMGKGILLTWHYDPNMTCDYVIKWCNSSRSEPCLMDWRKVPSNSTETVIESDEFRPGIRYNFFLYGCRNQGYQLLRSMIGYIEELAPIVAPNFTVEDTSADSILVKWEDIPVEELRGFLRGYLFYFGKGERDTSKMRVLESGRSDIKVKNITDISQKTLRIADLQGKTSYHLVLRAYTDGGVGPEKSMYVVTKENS

[3] = target: T3, human IL-6 (E. coli) (human, UniProt P05231 30-212, limits assumed); test: BLI (Octet), h5D8 amine-coupled to AR2G sensors, cytokine analyte; legend: ND = no binding
T3 construct: also called huIL-6 (E. coli)
T3 sequence (P05231 30-212 limits assumed): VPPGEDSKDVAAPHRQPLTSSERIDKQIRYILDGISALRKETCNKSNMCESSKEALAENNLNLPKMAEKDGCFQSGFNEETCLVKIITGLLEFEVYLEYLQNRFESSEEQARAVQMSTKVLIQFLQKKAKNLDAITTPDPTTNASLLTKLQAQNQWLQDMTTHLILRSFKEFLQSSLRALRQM
Description: 9.0.0.26 as follows: Amine Reactive 2ndGeneration Biosensors (AR2G) were hydrated for a minimum of 15 minutes in water. […] Kinetics experiments were then performed with the following Dip and Read steps at 30° C., 1000 rpm: vi) 60 seconds Baseline in 1× kinetics buffer; vii) 180 seconds Association of appropriate serial dilutions of a cytokine in 1× kinetics buffer; viii) 300 seconds Dissociation in 1× kinetics buffer; ix) Three Regeneration/Neutralization cycles alternating between 10 mM glycine pH 2.0 and 1× kinetics buffer respectively (5 seconds in each for 3 cycles). Following regeneration, the biosensors were reused for subsequent binding analyses.

[4] = target: B1; test: cell-based or functional assay

Row | Binder | binding result [1] | binding result [2] | binding result [3] | IC50 for biological inhibition (pSTAT3, U-251 cells, serum starved, endogenous LIF) [4] [picomolar]
1 | B1 | binds | – | – | –
2 | h5D8 (humanized 5D8, H2L2) (antibody, V domains shown, Humanized by CDR grafting from rat 5D8; also called G (H2L2); H5D8-1 IgG) VH: QVQLQESGGGLVKPGGSLRLSCAASGFTFSHAWMHWVRQAPGKGLEWVGQIKAKSDDYATYYAESVKGRFTISRDDSKNTLYLQMNSLKTEDTAVYYCTCWEWDLDFWGQGTMVTVSS VL: DIVMTQTPLSSPVTLGQPASISCRSSQSLLDSDGHTYLNWLQQRPGQPPRLLIYSVSNLESGVPDRFSGSGAGTDFTLKISRVEAEDVGVYYCMQATHAPPYTFGQGTKLEIK | – | no binding | no binding | 490
